Test results reported in US20070015242.

Target: recombinant NC1 fragment of type XVIII collagen (UniProt P39061)
Chain of UniProt P39061 (P39061 whole entry, looked up, the tested form may be a part): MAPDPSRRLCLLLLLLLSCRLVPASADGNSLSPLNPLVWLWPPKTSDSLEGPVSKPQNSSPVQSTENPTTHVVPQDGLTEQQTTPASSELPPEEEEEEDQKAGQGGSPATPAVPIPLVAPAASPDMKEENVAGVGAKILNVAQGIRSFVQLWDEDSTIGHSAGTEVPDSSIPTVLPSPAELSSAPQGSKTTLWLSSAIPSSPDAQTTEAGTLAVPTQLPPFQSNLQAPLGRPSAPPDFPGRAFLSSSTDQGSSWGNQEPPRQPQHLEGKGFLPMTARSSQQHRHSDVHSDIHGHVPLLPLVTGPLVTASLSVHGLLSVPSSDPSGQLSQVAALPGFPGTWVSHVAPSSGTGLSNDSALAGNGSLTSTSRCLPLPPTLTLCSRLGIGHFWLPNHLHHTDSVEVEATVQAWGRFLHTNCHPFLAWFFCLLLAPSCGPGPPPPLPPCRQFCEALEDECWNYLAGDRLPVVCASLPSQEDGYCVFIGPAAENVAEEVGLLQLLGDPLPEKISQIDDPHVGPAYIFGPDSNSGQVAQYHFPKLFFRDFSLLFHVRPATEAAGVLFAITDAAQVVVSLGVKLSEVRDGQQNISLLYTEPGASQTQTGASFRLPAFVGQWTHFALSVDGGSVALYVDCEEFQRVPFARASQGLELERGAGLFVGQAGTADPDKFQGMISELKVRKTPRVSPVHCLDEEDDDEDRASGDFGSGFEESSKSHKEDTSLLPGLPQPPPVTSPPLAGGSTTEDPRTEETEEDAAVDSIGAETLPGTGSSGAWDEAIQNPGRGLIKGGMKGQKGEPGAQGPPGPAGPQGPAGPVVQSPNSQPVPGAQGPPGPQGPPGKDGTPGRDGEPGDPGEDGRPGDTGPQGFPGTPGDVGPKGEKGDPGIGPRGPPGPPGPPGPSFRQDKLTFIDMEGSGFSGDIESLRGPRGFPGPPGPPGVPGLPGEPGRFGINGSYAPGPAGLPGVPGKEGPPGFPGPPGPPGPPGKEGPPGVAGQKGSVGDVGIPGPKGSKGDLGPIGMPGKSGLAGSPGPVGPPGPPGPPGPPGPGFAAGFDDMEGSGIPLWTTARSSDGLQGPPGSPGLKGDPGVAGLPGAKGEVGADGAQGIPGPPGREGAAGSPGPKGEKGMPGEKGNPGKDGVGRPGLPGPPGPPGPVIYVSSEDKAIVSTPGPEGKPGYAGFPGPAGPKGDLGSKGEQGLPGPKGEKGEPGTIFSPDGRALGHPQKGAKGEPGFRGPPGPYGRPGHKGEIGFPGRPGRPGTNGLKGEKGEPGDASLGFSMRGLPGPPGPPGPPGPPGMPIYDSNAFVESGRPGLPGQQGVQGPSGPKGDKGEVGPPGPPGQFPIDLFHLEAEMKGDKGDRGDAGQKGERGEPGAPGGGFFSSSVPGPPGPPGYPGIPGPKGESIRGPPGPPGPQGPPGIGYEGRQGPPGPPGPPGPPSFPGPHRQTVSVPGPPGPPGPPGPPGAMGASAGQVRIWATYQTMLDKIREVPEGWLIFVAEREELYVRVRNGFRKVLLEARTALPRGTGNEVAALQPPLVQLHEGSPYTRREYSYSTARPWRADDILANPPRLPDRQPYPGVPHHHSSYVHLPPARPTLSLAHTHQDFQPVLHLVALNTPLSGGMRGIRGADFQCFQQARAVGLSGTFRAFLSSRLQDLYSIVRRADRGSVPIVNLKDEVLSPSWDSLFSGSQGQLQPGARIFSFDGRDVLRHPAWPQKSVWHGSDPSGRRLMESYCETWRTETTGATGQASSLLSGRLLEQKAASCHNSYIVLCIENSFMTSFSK

matrix metalloproteinase-2 (MMP-2), active enzyme
cleavage of recombinant NC1 fragment (Western blot of degradation products): Treatment of the recombinant NC1 fragment of type XVIII collagen with MMP-2 or -9, similar to control, did not produce NC1 degradation products

matrix metalloproteinase-9 (MMP-9), active enzyme
cleavage of recombinant NC1 fragment (Western blot of degradation products): Treatment of the recombinant NC1 fragment of type XVIII collagen with MMP-2 or -9, similar to control, did not produce NC1 degradation products

matrix metalloproteinase-14 (MMP-14), active enzyme
cleavage of recombinant NC1 fragment (Western blot of degradation products): MMP-7 and MMP-14 cleaved the recombinant NC1 fragment to produce neostatin-7, neostatin-14 and several endostatin-containing fragments

B1: matrix metalloproteinase-7 (matrilysin, MMP-7), active enzyme (enzyme, UniProt P09237 95-267, looked up, species assumed)
Matrilysin: YSLFPNSPKWTSKVVTYRIVSYTRDLPHITVDRLVSKALNMWGKEIPLHFRKVVWGTADIMIGFARGAHGDSYPFDGPGNTLAHAFAPGTGLGGDAHFDEDERWTDGSSLGINFLYAATHELGHSLGMGHSSDPNAVMYPTYGNGDPQNFKLSQDDIKGIQKLYGKRSNSRKK
modifications: APMA-activated
cleavage of NC1 fragments at pH 5.5, 6.5 and 7.5 (gel): the cleavage of collagen XVIII/NC1 by MMP-7 is pH sensitive, and proceeds less efficiently at more acidic pH | cleavage of recombinant NC1 fragment (Western blot of degradation products): MMP-7 and MMP-14 cleaved the recombinant NC1 fragment to produce neostatin-7, neostatin-14 and several endostatin-containing fragments
